The target of test [1] is human MC-R1B receptor (splice variant of the human melanocortin-1 receptor, 382 amino acids) (human). The test can be described thus: cell-based or functional assay.
The target is the same in test [2]. Description: displacement of 200 pM [125I]-NDP-αMSH from crude membranes of COS-7 cells expressing human MC-R1B.
The test system of test [3] is MC-1RB. The test can be described thus: cAMP functional receptor assay in COS-7 cells transfected with MC-1RB expression plasmids. The class given is cell-based, human. The conditions noted are these: for approximate rank order of potency in eliciting the cAMP response: COS-7 cells transiently expressing MC-R1B; for rise in intracellular cAMP formation: maximum agonist concentration, compared to background response in sham-transfected COS-7 cells. The procedure: cAMP Functional Receptor Assay—Receptor-mediated stimulation of cyclic AMP (cAMP) formation was assayed in COS-7 cells transfected with MC-1RB expression plasmids. Cells expressing MC-1RB were dissociated from tissue culture flasks by rinsing with Ca and Mg free phosphate buffered saline (Life Technologies, Gaithersburg, Md.) and detached following 5 min. incubation with enzyme-free dissociation buffer (Specialty Media, Lavellette, N.J.). Cells were collected by centrifugation and resuspended in Earle's Balanced Salt Solution (EBSS) (Life Technologies, Gaithersburg, Md.) with additions of 10 mM HEPES pH 7.5, 5 mM MgCl2, 1 mM glutamine and 1 mg/ml bovine serum albumin. Cells are counted and diluted to 2 to 4×10^6/ml. The phosphodiesterace inhibitor 3-isobutyl-1-methylxanthine was added at a concentration of 0.6 mM. Test peptides were diluted in EBSS with above additions and 10% DMSO; 0.1 vol of compounds added to 0.9 vol of cells. After room temperature incubation for 40 min., cells are lysed by incubation at 100° C. for 5 min. to release accumulated cAMP. cAMP is measured in an aliquot of the cell lysate with the Amersham (Arlington Heights, Ill.) cAMP detection assay (RPA556).
Previous studies (Mountjoy, et al., 1992, Science 257:1248-1251 [see also U.S. Pat. No. 5,532,347]; Chhajlani and Wikberg, 1992, FEBS Letters 309:417-420) has documented that activation of the MC-1RA isoform by melanocortin agonists results in an elevation of intracellular cAMP production through the coupling of G-proteins to activation of membrane-bound adenylate cyclase.
On the technique in general: Changes in cAMP serve as a functional read-out for many G protein-coupled receptors.

In test [4] the target is human MC-R1B receptor (splice variant of the human melanocortin-1 receptor, 382 amino acids) (human). Description: radioligand binding, membranes of COS-7 cells expressing MC-R1B.

A value given as a limit tells only on which side of the number the result lay.

Take NDP-αMSH (unlabelled) (peptide): the intracellular cAMP formation in COS-7 cells transiently expressing MC-R1B in test [1] turned out to be 3 fold. In test [2], this molecule had an IC50 of 0.7 nM.

Molecule “βMSH (from UniProt P01189 213-234) (peptide)” had an intracellular cAMP formation in COS-7 cells transiently expressing MC-R1B in test [1] of 3 fold.

As for “γMSH (from UniProt P01189 77-88) (peptide)”, in test [1], the intracellular cAMP formation in COS-7 cells transiently expressing MC-R1B was found to be 3 fold.

SHU-9119 (peptide) returned an intracellular cAMP formation in COS-7 cells transiently expressing MC-R1B in test [1] of 3 fold. In test [2], this molecule yielded an IC50 of 0.7 nM.

On to NDP-αMSH, for which, in test [3], the “approximate rank order of potency in eliciting the cAMP response” value (from here on “approximate rank order of potency”) is reported as “MT-II>NDP-MSH>SHU-9119>αMSH>βMSH>γMSH” and the “rise in intracellular cAMP formation” value is given as roughly 3 fold.

Regarding MT-II, in test [3], the “approximate rank order of potency” value is recorded as “MT-II>NDP-MSH>SHU-9119>αMSH>βMSH>γMSH” and the “rise in intracellular cAMP formation” value is given as roughly 3 fold.

αMSH: in test [3], the “approximate rank order of potency” value is listed as “MT-II>NDP-MSH>SHU-9119>αMSH>βMSH>γMSH” and the “rise in intracellular cAMP formation” value is reported as roughly 3 fold.

Regarding SHU-9119, the “rise in intracellular cAMP formation” value in test [3] is given as roughly 3 fold.

In test [1], MT-II (peptide) came in with an intracellular cAMP formation in COS-7 cells transiently expressing MC-R1B of 3 fold. Moreover, the IC50 in test [2] came out at 0.2 nM.

Take “βMSH: β-melanocyte stimulating hormone, melanocortin peptide derived from the POMC gene”: in test [3], the “approximate rank order of potency” value was “MT-II>NDP-MSH>SHU-9119>αMSH>βMSH>γMSH” and the “rise in intracellular cAMP formation” value is on record as roughly 3 fold.

Take [125I]-NDP-αMSH (peptide): in test [4], the specific binding (percent of total binding) (% of total binding) is greater than 90.

B1: ACTH (peptide, UniProt P01189 138-176, looked up)
peptide: SYSMEHFRWGKPVGKKRRPVKVYPNGAEDESAEAFPLEF
For the molecule B1, the IC50 in test [2] was determined as 5 nM.

B2: αMSH (peptide, UniProt P01189 138-150, looked up)
peptide: SYSMEHFRWGKPV
B2 had an intracellular cAMP formation in COS-7 cells transiently expressing MC-R1B in test [1] of 3 fold. Moreover, the IC50 in test [2] came out at 5 nM.

In general, IC50 refers to the concentration needed to halve the response being measured. A lower IC50 goes with higher potency.

The values are drawn from US6693184B1, “DNA molecules encoding splice variants of the human melanocortin 1 receptor protein” (Merck & Co., Inc., priority 1998, dated 2004).
